Laboratory results reported in publication doi:10.1101/2025.11.17.688911.

Experiments:
[1] = molecular target: surface-immobilized biotinylated microtubules, Q2XVP4;Q767L7; test: fluorescence intensity of GFP-tagged MAP9-MTBD on surface-immobilized MTs (fluorescence microscopy); details: 100 nM MAP9 construct (stated for panel h and Extended Data Fig. 6b); parent: est. 0.72; read off a plot
[2] = molecular target: surface-immobilized biotinylated microtubules, Q2XVP4;Q767L7; test: fluorescence intensity of GFP-tagged MAP9 on MTs (fluorescence microscopy); details: 100 mM salt (stated for panel d); parent: est. 2.8; read off a plot

Row | Substance | response [1] [a.u.] | response [2] [a.u.]
1 | MAP9-MTBD (Human MAP9 (302–647)::GFP::strepII) (from UniProt Q49MG5) Y429A; W432A; K436A; F473A; W476A; K480A | 0.05 | 
2 | MAP9-MTBD (Human MAP9 (302–647)::GFP::strepII) (from UniProt Q49MG5) LHEMHRIK>LAEMHAIK; …>…; LKEKNRK>LAEKNAK; FKQKEKEK>FAQKEAEK; ERIERKQ>EAIERAQ |  | 2.8
